B1: 14-3-3 protein zeta/delta (Homo sapiens), P63104 (parent)
chain: MDKNELVQKAKLAEQAERYDDMAACMKSVTEQGAELSNEERNLLSVAYKNVVGARRSSWRVVSSIEQKTEGAEKKQQMAREYREKIETELRDICNDVLSLLEKFLIPNASQAESKVFYLKMKGDYYRYLAEVAAGDDKKGIVDQSQQAYQEAFEISKKEMQPTHPIRLGLALNFSVFYYEILNSPEKACSLAKTAFDEAIAELDTLSEESYKDSTLIMQLLRDNLTLWTSDTQGDEAEAGEGGEN
B2: Mothers against decapentaplegic homolog 4 (Homo sapiens), Q13485 (parent)
chain: MDNMSITNTPTSNDACLSIVHSLMCHRQGGESETFAKRAIESLVKKLKEKKDELDSLITAITTNGAHPSKCVTIQRTLDGRLQVAGRKGFPHVIYARLWRWPDLHKNELKHVKYCQYAFDLKCDSVCVNPYHYERVVSPGIDLSGLTLQSNAPSSMMVKDEYVHDFEGQPSLSTEGHSIQTIQHPPSNRASTETYSTPALLAPSESNATSTANFPNIPVASTSQPASILGGSHSEGLLQIASGPQPGQQQNGFTGQPATYHHNSTTTWTGSRTAPYTPNLPHHQNGHLQHHPPMPPHPGHYWPVHNELAFQPPISNHPAPEYWCSIAYFEMDVQVGETFKVPSSCPIVTVDGYVDPSGGDRFCLGQLSNVHRTEAIERARLHIGKGVQLECKGEGDVWVRCLSDHAVFVQSYYLDREAGRAPGDAVHKIYPSAYIKVFDLRQCHRQMQQQAATAQAAAAAQAAAVAGNIPGPGSVGGIAPAISLSAAAGIGVDDLRRLCILRMSFVKGWGPDYPRQSIKETPCWIEIHLHRALQLLDEVLHTMPIADPQPLD
partner: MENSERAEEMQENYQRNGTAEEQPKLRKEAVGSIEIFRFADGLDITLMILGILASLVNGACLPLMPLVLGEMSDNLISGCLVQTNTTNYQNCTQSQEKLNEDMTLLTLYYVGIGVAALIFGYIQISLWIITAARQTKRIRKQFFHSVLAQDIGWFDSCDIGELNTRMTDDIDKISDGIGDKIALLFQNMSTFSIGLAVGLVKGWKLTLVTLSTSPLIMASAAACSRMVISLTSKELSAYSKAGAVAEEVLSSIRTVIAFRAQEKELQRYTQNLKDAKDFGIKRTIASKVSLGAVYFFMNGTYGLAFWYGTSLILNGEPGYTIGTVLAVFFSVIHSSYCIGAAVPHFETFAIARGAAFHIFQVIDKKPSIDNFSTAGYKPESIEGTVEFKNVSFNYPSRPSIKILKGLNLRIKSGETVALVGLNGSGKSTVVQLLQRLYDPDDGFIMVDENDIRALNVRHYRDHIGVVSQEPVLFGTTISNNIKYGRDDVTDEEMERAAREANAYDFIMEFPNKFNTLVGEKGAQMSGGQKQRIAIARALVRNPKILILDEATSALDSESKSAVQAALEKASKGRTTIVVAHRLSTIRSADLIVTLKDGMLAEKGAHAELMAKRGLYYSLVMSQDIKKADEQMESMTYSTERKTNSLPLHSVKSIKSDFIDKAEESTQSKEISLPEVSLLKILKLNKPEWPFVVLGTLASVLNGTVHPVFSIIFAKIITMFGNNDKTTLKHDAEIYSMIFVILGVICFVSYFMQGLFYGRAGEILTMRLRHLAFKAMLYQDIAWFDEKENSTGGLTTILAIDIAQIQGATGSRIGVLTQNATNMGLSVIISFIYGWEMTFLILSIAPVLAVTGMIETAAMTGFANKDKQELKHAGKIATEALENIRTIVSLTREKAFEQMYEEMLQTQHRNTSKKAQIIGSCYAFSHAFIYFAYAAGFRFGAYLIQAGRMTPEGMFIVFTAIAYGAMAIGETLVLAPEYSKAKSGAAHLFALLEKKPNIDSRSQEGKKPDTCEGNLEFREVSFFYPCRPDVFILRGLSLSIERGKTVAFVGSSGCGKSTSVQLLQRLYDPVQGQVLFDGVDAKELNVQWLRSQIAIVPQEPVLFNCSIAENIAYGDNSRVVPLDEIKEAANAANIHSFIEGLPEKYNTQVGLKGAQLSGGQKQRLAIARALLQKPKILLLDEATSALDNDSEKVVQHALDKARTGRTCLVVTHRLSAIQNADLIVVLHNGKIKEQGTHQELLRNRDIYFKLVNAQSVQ
B3: Mothers against decapentaplegic homolog 4 (Homo sapiens), Q13485 (parent)
chain: B2 chain
partner: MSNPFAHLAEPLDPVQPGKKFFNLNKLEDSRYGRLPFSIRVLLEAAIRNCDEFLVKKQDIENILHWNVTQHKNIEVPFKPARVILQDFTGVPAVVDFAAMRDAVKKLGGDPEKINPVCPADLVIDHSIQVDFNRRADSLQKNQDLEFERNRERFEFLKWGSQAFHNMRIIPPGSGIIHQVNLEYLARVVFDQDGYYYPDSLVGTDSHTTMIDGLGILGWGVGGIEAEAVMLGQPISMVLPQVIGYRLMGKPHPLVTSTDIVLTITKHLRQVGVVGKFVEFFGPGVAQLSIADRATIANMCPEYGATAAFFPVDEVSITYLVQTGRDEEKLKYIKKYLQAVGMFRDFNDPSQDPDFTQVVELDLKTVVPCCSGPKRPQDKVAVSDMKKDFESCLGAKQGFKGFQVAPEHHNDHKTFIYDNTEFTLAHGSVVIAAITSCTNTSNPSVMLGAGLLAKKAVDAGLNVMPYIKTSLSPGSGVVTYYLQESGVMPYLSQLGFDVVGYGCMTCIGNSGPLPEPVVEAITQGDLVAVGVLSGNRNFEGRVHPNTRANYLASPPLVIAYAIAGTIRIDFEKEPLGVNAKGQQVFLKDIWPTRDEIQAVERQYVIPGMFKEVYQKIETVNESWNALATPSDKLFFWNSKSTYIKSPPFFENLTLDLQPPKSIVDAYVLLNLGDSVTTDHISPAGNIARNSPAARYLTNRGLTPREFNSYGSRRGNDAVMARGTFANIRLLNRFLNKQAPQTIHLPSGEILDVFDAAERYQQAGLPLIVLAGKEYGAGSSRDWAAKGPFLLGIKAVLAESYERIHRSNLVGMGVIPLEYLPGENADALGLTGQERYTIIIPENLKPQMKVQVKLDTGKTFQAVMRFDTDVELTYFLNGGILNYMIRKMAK
B4: Mothers against decapentaplegic homolog 4 (Homo sapiens), Q13485 (parent)
chain: B2 chain
partner: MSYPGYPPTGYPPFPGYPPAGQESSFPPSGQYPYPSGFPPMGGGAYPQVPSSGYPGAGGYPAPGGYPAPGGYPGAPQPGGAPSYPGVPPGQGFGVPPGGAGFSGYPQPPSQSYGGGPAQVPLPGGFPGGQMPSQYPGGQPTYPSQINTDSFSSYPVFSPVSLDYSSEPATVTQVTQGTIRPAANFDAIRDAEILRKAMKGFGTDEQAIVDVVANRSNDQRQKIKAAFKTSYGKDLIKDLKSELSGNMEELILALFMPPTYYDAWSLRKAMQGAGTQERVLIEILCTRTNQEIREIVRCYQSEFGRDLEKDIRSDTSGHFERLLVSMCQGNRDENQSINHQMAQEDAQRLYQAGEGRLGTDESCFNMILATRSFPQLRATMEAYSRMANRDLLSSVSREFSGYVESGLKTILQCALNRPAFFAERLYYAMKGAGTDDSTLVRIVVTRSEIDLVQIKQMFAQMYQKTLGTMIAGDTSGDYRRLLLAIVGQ
B5: Mothers against decapentaplegic homolog 4 (Homo sapiens), Q13485 (parent)
chain: B2 chain
partner: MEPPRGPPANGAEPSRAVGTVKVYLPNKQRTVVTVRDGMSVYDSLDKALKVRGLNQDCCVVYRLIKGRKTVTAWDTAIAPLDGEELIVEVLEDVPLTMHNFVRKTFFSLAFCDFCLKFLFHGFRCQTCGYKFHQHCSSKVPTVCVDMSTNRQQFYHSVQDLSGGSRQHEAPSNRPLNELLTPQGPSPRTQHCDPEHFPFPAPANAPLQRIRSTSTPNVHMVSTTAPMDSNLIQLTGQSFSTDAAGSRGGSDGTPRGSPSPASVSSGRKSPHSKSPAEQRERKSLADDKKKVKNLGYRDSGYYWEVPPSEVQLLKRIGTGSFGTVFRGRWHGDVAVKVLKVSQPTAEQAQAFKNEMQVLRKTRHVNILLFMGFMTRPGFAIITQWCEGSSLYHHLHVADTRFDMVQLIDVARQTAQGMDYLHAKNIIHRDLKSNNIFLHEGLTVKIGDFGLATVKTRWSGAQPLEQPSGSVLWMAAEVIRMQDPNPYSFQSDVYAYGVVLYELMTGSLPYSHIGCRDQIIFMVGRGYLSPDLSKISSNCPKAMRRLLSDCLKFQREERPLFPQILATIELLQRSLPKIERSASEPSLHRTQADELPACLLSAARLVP
B6: Mothers against decapentaplegic homolog 4 (Homo sapiens), Q13485 (parent)
chain: B2 chain
partner: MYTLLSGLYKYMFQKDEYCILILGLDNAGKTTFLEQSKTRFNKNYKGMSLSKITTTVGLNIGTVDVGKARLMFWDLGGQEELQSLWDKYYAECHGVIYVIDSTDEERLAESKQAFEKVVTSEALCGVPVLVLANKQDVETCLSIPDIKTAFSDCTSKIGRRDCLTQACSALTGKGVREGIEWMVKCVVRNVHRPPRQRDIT

Variants of: B1
Details: with braf_human BRAF

Row | Variant | effect of a mutation on the interaction
1 | K49E | disrupting interaction strength

Variants of: B2
Details: with abcb5_human ABCB5, Q2M3G0

Row | Variant | effect of a mutation on the interaction
2 | D351H | with no effect

Variants of: B2
Details: with abcb5_human ABCB5, Q2M3G0
Remark: another data set of the same source

Row | Variant | effect of a mutation on the interaction
3 | G386D | with no effect

Variants of: B2
Details: with abcb5_human ABCB5, Q2M3G0
Remark: another data set of the same source

Row | Variant | effect of a mutation on the interaction
4 | R361C | with no effect

Variants of: B2
Details: with abcb5_human ABCB5, Q2M3G0
Remark: another data set of the same source

Row | Variant | effect of a mutation on the interaction
5 | R361H | with no effect

Variants of: B3
Details: with acohc_human ACO1, P21399

Row | Variant | effect of a mutation on the interaction
6 | D351H | with no effect

Variants of: B3
Details: with acohc_human ACO1, P21399
Remark: another data set of the same source

Row | Variant | effect of a mutation on the interaction
7 | G386D | with no effect

Variants of: B3
Details: with acohc_human ACO1, P21399
Remark: another data set of the same source

Row | Variant | effect of a mutation on the interaction
8 | R361C | with no effect

Variants of: B3
Details: with acohc_human ACO1, P21399
Remark: another data set of the same source

Row | Variant | effect of a mutation on the interaction
9 | R361H | with no effect

Variants of: B4
Details: with anxa7_human ANXA7, P20073

Row | Variant | effect of a mutation on the interaction
10 | D351H | with no effect

Variants of: B4
Details: with anxa7_human ANXA7, P20073
Remark: another data set of the same source

Row | Variant | effect of a mutation on the interaction
11 | G386D | with no effect

Variants of: B4
Details: with anxa7_human ANXA7, P20073
Remark: another data set of the same source

Row | Variant | effect of a mutation on the interaction
12 | R361C | with no effect

Variants of: B4
Details: with anxa7_human ANXA7, P20073
Remark: another data set of the same source

Row | Variant | effect of a mutation on the interaction
13 | R361H | with no effect

Variants of: B5
Details: with araf_human ARAF

Row | Variant | effect of a mutation on the interaction
14 | D351H | with no effect

Variants of: B5
Details: with araf_human ARAF
Remark: another data set of the same source

Row | Variant | effect of a mutation on the interaction
15 | G386D | with no effect

Variants of: B5
Details: with araf_human ARAF
Remark: another data set of the same source

Row | Variant | effect of a mutation on the interaction
16 | G386D | increasing interaction strength

Variants of: B5
Details: with araf_human ARAF
Remark: another data set of the same source

Row | Variant | effect of a mutation on the interaction
17 | R361C | with no effect

Variants of: B5
Details: with araf_human ARAF
Remark: another data set of the same source

Row | Variant | effect of a mutation on the interaction
18 | R361H | with no effect

Variants of: B6
Details: with arfrp_human ARFRP1, Q13795

Row | Variant | effect of a mutation on the interaction
19 | D351H | with no effect

Variants of: B6
Details: with arfrp_human ARFRP1, Q13795
Remark: another data set of the same source

Row | Variant | effect of a mutation on the interaction
20 | G386D | with no effect

Variants of: B6
Details: with arfrp_human ARFRP1, Q13795
Remark: another data set of the same source

Row | Variant | effect of a mutation on the interaction
21 | R361C | with no effect

Variants of: B6
Details: with arfrp_human ARFRP1, Q13795
Remark: another data set of the same source

Row | Variant | effect of a mutation on the interaction
22 | R361H | with no effect
